Laboratory results from US10272135B2, “Apolipoprotein O and fragments thereof for inducing apoptosis in a cancerous cell” (INSERM (INSTITUT NATIONAL DE LA SANTÉ ET DE LA RECHERCHE …, priority 2014, dated 2019).

Experiments:
cardiac myoblasts = test: Reactive oxygen species assessment (carboxy-DCFDA) in cardiac myoblasts; format: cell-based; details: ApoO cells vs control (FIG. 4D)
From the text: (§1) After ethical committee approval, all patients in this study gave written consent for sample collection and molecular analysis prior to inclusion. Patients were carefully selected by physicians from the Department of Cardiology, Toulouse University Hospital, prior to coronary by-pass surgery. Bioinformatics. Microarray expression data from human heart samples were downloaded from the GEO repository (GSE1145). This series consisted of 107 myocardial samples collected from patients undergoing cardiac transplantation whose failure arises from different etiologies (e.g. idiopathic dilated cardiomyopathy, ischemic cardiomyopathy, valvular cardiomyopathy, and hypertrophic cardiomyopathy) and from “normal” organ donors whose hearts cannot be used for transplants. Arrays were intensity normalized and hierarchical clustering (average group linkage, Pearson correlation, threshold r=0.8) was applied to identify groups of co-expressed genes. […] All ApoO sequences within the expression vectors were verified by DNA double strand sequencing using ABI PRISM®BigDye™ Terminator version 3.1 Ready reaction cycle sequencing kit (Life Technologies SAS, Villebon sur Yvette) and loaded on an ABI 3130XL DNA sequencing instrument (Life Technologies SAS, Villebon sur Yvette). […]

[1] = test system: fatty acid transporter (CD36 and FATP4); test: Real-time PCR of fatty acid transporter expression in cardiac myoblasts; format: cell-based; details: ApoO cells vs control (FIG. 6A-B)
From the text: as §1

mouse liver = test: Hydrodynamics-based in vivo transfection of the mouse liver
From the text: After ethical committee approval, all patients in this study gave written consent for sample collection and molecular analysis prior to inclusion. Patients were carefully selected by physicians from the Department of Cardiology, Toulouse University Hospital, prior to coronary by-pass surgery. Bioinformatics. Microarray expression data from human heart samples were downloaded from the GEO repository (GSE1145). This series consisted of 107 myocardial samples collected from patients undergoing cardiac transplantation whose failure arises from different etiologies (e.g. idiopathic dilated cardiomyopathy, ischemic cardiomyopathy, valvular cardiomyopathy, and hypertrophic cardiomyopathy) and from “normal” organ donors whose hearts cannot be used for transplants. Arrays were intensity normalized and hierarchical clustering (average group linkage, Pearson correlation, threshold r=0.8) was applied to identify groups of co-expressed genes. ApoO expression levels were plotted for the 107 human hearts tested and used to define relevant molecular pathways using both Toppgene and Ingenuity Pathway Analysis (Ingenuity systems, Redwood City, Calif., USA). ApoO subcellular localization was predicted using Mitopred, mitoprot and YLoc. Animals: All animal Studies followed the INSERM Institute Animal Facility guidelines and were approved by the animal care committees of the INSERM I2MC UMR 1048. All animal procedures were performed according to the guidelines of the French Ministry of Agriculture. Animals were housed at the Toulouse I2MC animal facility in a room lit 12 h per day (6 AM-6 PM) at an ambient temperature of 22+/−1° C. Construction of ApoO Expression Vectors To overexpress human ApoO (pTT-ApoO), the ApoO coding sequence was amplified using primers hApoO5BamPTT (SEQ ID NO: 2) and hApoO3BamPTT (SEQ ID NO: 3) and cloned into the BamH1 site of pTT expression vector. pSNAP-ApoO was generated by PCR amplification of pTT-ApoO using primers SnapApoEcorV-F (SEQ ID NO: 4) and SnapApoEcorV-R (SEQ ID NO: 5) and cloned into the EcoRV site of pSNAP-Tag® (Ozyme, Saint-Quentin-en-Yvelines, France). pGEX2T-ApoO was constructed by PCR amplification of pTT-ApoO using hApoOpGEX1FBam (SEQ ID NO: 6) and hApoOpGEX1RSma (SEQ ID NO: 7) and cloned into the Bam HI/Sma I site of pGEX2T (Promega, Charbonnières-les-Bains). All primers used in this work were synthesized by Eurogentec France (Angers). All restriction enzymes used were from New England Biolabs (Ozyme, Saint-Quentin-en-Yvelines). All ApoO sequences within the expression vectors were verified by DNA double strand sequencing using ABI PRISM®BigDye™ Terminator version 3.1 Ready reaction cycle sequencing kit (Life Technologies SAS, Villebon sur Yvette) and loaded on an ABI 3130XL DNA sequencing instrument (Life Technologies SAS, Villebon sur Yvette). Cell Culture and Tranfection of H9C2 Cardic Myoblasts H9c2 were obtained from the European Collection of Cell Cultures (Salisbury, England). H9c2 cells were cultured in Dulbecco's modified Eagle medium (Life Technologies SAS, Villebon sur Yvette) adjusted to contain 1.5 g/liter sodium bicarbonate and supplemented with antibiotic-antimycotic solution (Life Technologies SAS, Villebon sur Yvette) and 10% fetal bovine serum (FBS, AbCys s.a., Paris). Cells were plated on 10-cm diameter tissue culture dish and grown in a 5% CO2 incubator at 37° C. with saturating humidity with medium changes every 2 days. […]

B1: ApoO: 198-amino acid apolipoprotein, SEQ ID NO: 1; tested by overexpression from expression vectors or transgene (protein, listed as Homo sapiens)
chain: MFKVIQRSVGPASLSLLTFKVYAAPKKDSPPKNSVKVDELSLYSVPEGQSKYVEEARSQLEESISQLRHYCEPYTTWCQETYSQTKPKMQSLVQWGLDSYDYLQNAPPGFFPRLGVIGFAGLIGLLLARGSKIKKLVYPPGFMGLAASLYYPQQAIVFAQVSGERLYDWGLRGYIVIEDLWKENFQKPGNVKNSPGTK
- intracellular reactive oxygen species (ROS) (cardiac myoblasts): increases
- fatty acid transporter (CD36 and FATP4) expression [1]: strongly increased
- Caspase-3 activity in liver (mouse liver; 48 hours after transfection (FIG. 9e)): confirmed
- Bax expression in liver (mouse liver; 48 hours after transfection (FIG. 9d)): confirmed
- diglyceride levels in liver (mouse liver; ApoO transfected liver vs control vector (FIG. 8c)): increased
- intracellular triglycerides in liver (mouse liver; ApoO transfected liver vs control vector (FIG. 8d)): did not significantly modify
- oxygen consumption of isolated liver mitochondria (mouse liver; in vivo transfected mouse liver): significant increase
